In patent US20100266609A1 (UCB, published 2010):

T1: IL-17 C (UniProt Q9P0M4 19-197, limits assumed)
T1 sequence (looked up): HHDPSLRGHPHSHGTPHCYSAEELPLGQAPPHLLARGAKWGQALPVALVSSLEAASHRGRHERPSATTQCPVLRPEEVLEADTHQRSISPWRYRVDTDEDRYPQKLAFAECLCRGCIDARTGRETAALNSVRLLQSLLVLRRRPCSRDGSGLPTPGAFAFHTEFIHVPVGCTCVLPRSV

T2: IL-17 E (UniProt Q9H293 33-177, limits assumed)
T2 sequence (looked up): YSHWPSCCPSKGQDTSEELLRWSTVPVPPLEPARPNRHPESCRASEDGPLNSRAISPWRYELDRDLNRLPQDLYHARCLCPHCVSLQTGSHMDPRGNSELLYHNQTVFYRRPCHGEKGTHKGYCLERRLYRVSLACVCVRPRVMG

T3: IL-17 D (UniProt Q8TAD2 18-202, limits assumed)
T3 sequence (looked up): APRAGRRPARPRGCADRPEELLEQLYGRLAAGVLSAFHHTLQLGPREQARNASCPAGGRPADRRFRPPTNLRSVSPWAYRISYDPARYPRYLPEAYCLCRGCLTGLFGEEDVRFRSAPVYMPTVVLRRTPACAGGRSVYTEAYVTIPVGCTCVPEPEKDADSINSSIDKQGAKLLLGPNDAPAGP

T4: IL-17 B (UniProt Q9UHF5 21-180, limits assumed)
T4 sequence (looked up): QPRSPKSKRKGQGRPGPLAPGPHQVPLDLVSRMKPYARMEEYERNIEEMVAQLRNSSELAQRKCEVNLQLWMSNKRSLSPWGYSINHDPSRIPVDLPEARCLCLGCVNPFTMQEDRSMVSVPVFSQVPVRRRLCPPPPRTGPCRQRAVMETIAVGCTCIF


Key:
[1] = target: T5, Recombinant IL-17A/F heterodimer (human); assay: SPR (Biacore 3000, 25°C), antibody captured by anti-mouse IgG Fc, cytokine titrated from 25 nM
T5 construct: also called human recombinant IL-17A/F heterodimer; heterodimer A/F
T5 sequence (chain, as listed by the source limits assumed): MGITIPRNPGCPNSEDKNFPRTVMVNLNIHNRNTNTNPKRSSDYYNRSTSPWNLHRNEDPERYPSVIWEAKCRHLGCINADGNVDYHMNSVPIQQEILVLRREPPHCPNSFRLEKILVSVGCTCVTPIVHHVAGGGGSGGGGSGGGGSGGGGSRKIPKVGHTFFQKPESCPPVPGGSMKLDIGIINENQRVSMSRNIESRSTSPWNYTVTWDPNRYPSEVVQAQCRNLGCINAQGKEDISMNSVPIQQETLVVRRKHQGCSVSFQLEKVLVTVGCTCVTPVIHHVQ
Description: All experiments were performed at 25° C.
Double referenced background subtracted binding curves were analysed using the BIAevaluation software (version 3.2) following standard procedures. Kinetic parameters were determined from the fitting algorithm.

[2] = target: T1, IL-17 C; assay: SPR (Biacore 3000), antibody captured by anti-human IgG Fc, cytokine in solution
Description: (§1) BIA (Biamolecular Interaction Analysis) was performed using a Biacore 3000 (Biacore AB). All experiments were performed at 25° C. Affinipure Fc Fragment goat anti-human IgG, Fc fragment specific (Jackson ImmunoResearch) was immobilised on a CM5 Sensor Chip via amine coupling chemistry to a capture level of ≈6000 response units (RUs). HSS-EP buffer (10 mM HEPES pH 7.4, 0.15 M NaCl, 3 mM EDTA, 0.005% Surfactant P20, Biacore AB) was used as the running buffer with a flow rate of 10 μl/min. […] The surface was regenerated by a 30 μL injections of 40 mM HCl, followed by one 5 μL injection of 5 mM NaOH.
(§2) Background subtraction binding curves were double referenced and analysed using the BIAevaluation software (version 3.2) following standard procedures. Kinetic parameters were determined from the fitting algorithm.

[3] = target: T2, IL-17 E; assay: as above
Description: as §1, §2

[4] = target: T3, IL-17 D; assay: as above
Description: as §1, §2

[5] = target: T4, IL-17 B; assay: as above
Description: as §1, §2

Row | Kd [1] [nM] | Binder | binding result [2] | binding result [3] | binding result [4] | binding result [5]
1 | 0.116 | Antibody CA028-0496 (murine IgG1 constant regions) (antibody, V domains shown, not shown: murine IgG1 heavy chain constant region; murine light chain constant region) VH: EVQLVESGGGLVQPGGSLRLSCAASGFTFSDYNMAWVRQAPGKGLEWVATITYEGRNTYYRDSVKGRFTISRDNAKNSLYLQMNSLRAEDTAVYYCASPPQYYEGSIYRLWFAHWGQGTLVTVSS VL: AIQLTQSPSSLSASVGDRVTITCRADESVTTLMHWYQQKPGKAPKLLIYLVSNRESGVPSRFSGSGSGTDFTLTISSLQPEDFATYYCQQTWSDPWTFGQGTKVEIKR |  |  |  | 
2 |  | Antibody CA028-0496 (human IgG4 constant regions) (antibody, V domains shown, human gamma-4 constant region with the hinge mutation S241P and human C-kappa (Km3), made in CHO cells) VH: EVQLVESGGGLVQPGGSLRLSCAASGFTFSDYNMAWVRQAPGKGLEWVATITYEGRNTYYRDSVKGRFTISRDNAKNSLYLQMNSLRAEDTAVYYCASPPQYYEGSIYRLWFAHWGQGTLVTVSS VL: AIQLTQSPSSLSASVGDRVTITCRADESVTTLMHWYQQKPGKAPKLLIYLVSNRESGVPSRFSGSGSGTDFTLTISSLQPEDFATYYCQQTWSDPWTFGQGTKVEIKR | no binding (tested: doubling dilutions from 50 nM to sub nM) | no binding (tested: doubling dilutions from 50 nM to sub nM) | no binding (tested: doubling dilutions from 50 nM to sub nM) | no binding (tested: doubling dilutions from 50 nM to sub nM)
